Laboratory results: the supplement of paper PMC9170038

Tested on: MS2 coat protein
Assay: apparent KD of MS2 coat protein; designed switch direction (-1 OFF switch, 1 ON switch): -1; higher = weaker reporter binding
Outline: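 Stalled E. coli RNA polymerase transcribed designed RNA switches on Illumina chips, which were then titrated with SNAP-549-labelled MS2 coat protein, doubling from 0.7 or 1.5 nM to 3 µM. Steps lasted from 0.8–1.5 h at the lowest concentration to 10–20 min at the highest. The apparent KD is each design's median over clusters of curve-fitted normalised fluorescence.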

[1] = Eterna round: R95, input ligand: microRNA oligo, concentration not stated
[2] = input ligand: microRNA oligo, concentration not stated
[3] = Eterna round: R95, input ligand: FMN 200 uM
[4] = Eterna round: R95, input ligand: none

Sequence | apparent KD of MS2 coat protein (input ligand: FMN 200 uM) | apparent KD of MS2 coat protein (input ligand: none) | other results
AAAUCACAUGAGGAUCACCCAUGUGAGGAUAUGAUACUAUGUACUUCGGUACAUAGUAUCAGAAGGCAUGUGGA [Ex1-3: 89] (puzzle: Exclusion 1) | – | – | apparent KD of MS2 coat protein [1]: 28.2 nM
AAGUAGUGACAGGAUAUUGUUCAUGAUAUGGAACAAGAAGGGUUAACAUGAGGAUCACCCAUGUAUCCUCCGUG [Eternabot (L2) Solution 14] (Eterna round: R97, puzzle: Exclusion 6) | 401 nM | 44.9 nM | –
CCCACAGGCUUUUUGCUCGACAUGAGGAUCACCCAUGUUGAAUGGGUUGUGUGUGUGUGAUACAUAUAUAUGGUCCU [-25.5, -50.5 kcal, A 21%] (Eterna round: R97, puzzle: Sensor, turn-off variant 1) | 142 nM | 158 nM | –
CGUGAGUCAGGAUAUGCCUGUACUAACUUGAGGAUCACCCAAGUGUCCUCCCGGUGCAAUGCAGAAGGGACGACGA [Oninlein] (Eterna round: R97, puzzle: Exclusion 5) | 765 nM | 74.2 nM | –
CCUCAACAGUAGGAUAUCAUAAAACUAUUGUGAUGAGAAGGACUGACAUGAGGAUCACCCAUGUUAACGUGAUA [Exclusion 6 - 5:a] (puzzle: Exclusion 6) | – | – | apparent KD of MS2 coat protein [1]: 17.4 nM
UCUUACUGAGGAUAUACAUAGAUUUACAUGAGGAUCACCCAUGUUCCUCUAUGUAUAAAUGUAGAAGGCAGAAGAU [Mat - Exclusion 5 - JL Mod - D54] (Eterna round: R97, puzzle: Exclusion 5) | 72.9 nM | 18 nM | –
UAUAUAUAGUAAGGAUAUGUAAUUAUUUUGUAAACAGAAGGUACUGACAUGAGGAUCACCCAUGUUUUAGUGUGGGCAUGUAGA [JMF's solution 44] (Eterna round: R96, puzzle: Exclusion NG 1) | – | – | apparent KD of MS2 coat protein [2]: 84.5 nM
UUUUUAUAUGAAGGAUAUACUUAACAUGAGGAUCACCCAUGUGGUGUUGUGAGUGAGUGAGUUUAGUAGAAGGUCAACGAUUUU [JMF's solution 58] (Eterna round: R96, puzzle: Exclusion NG 2) | 810 nM | 421 nM | apparent KD of MS2 coat protein [2]: 322 nM
GUCAGCUCGUGAGGAUAUACAUGAGGAUCACCCAUGUGAUCAAUAGCAGCUUCGGCUGCAUUAAUGUAGAAGGCACGAGCUGAC [ENG2/5-A1] (Eterna round: R96, puzzle: Exclusion NG 2) | 61.8 nM | 152 nM | apparent KD of MS2 coat protein [2]: 22.2 nM
CACGUGUCAGGAUAUAGGACAGAUAUAGUCACAAUCUCUGCCUAGAAGGGACAUGAGGAUCACCCAUGUCUAUA [EX4 C.17] (Eterna round: R97, puzzle: Exclusion 4) | 27.6 nM | 20.5 nM | –
AUUAGCGUAGGAUAUUAGUACAUGUACAUGAGGAUCACCCAUGUGAGGUGAGUCUUAGAUUAAGAAGGGCGAAGAA [EX5 #34] (Eterna round: R97, puzzle: Exclusion 5) | 309 nM | 704 nM | –
AAUACAAGCUAUUGAUCCCACAUGAGGAUCACCCAUGUACCUGGCCGUGAGACCAGGUUUACAAUAGCUCGUCUUAU [Sensor-V1 #48] (Eterna round: R97, puzzle: Sensor, turn-off variant 1) | 107 nM | 93.8 nM | –
CUGAGGUAGCGGUCCUAUGACAUGAGGAUCACCCAUGUACCUUGCUACGAGCUUUUUGCUCGUCUUAUAAUUCUCGG [JL Atriat mod 3] (puzzle: Sensor v3, turn-off variant 1) | – | – | apparent KD of MS2 coat protein [3]: 466 nM; apparent KD of MS2 coat protein [1]: 91.5 nM; apparent KD of MS2 coat protein [4]: 526 nM
GCAUGCUCCGAGGAUAUCGAAGCUAAUUAUGCACGAGAAGGCGGAACAUGAGGAUCACCCAUGUGAUGCCAAUG [Qutequen] (Eterna round: R97, puzzle: Exclusion 6) | 51.9 nM | 21.6 nM | –
GAAGAGACAGGAUAUACAUGAGGAUCACCCAUGUGAGGAGGAAGAGAGAGGAGAAGGAGUAGAAGGGUCAGAGG [JR_Exclu3_Sub028] (puzzle: Exclusion 3) | – | – | apparent KD of MS2 coat protein [3]: 32.1 nM; apparent KD of MS2 coat protein [1]: 41.2 nM; apparent KD of MS2 coat protein [4]: 46.5 nM
GGUGCGUUUGUGAGGAUAUGCUGGUCCUUGGAUCAGCAGAAGGCACAUGAGGAUCACCCAUGUGGUGUCGGUCC [salish99_Bmod_Ex4_038] (puzzle: Brourd's mod of Exclusion 4) | – | – | apparent KD of MS2 coat protein [1]: 252 nM
GACGCUGACCGAGGAUAUACAAUAAAACAACAAACACCUCGUGUCAGAACAUGAGGAUCACCCAUGUAGAAGGCGGCAGGUCUA [Teateus] (Eterna round: R96, puzzle: Exclusion NG 2) | – | – | apparent KD of MS2 coat protein [2]: 31.6 nM
AUGCGCAAGCUUUUUGUUCACAUGAGGAUCACCCAUGUUAUGGUCGCCUGUGAGGAGCGAUAGCGUCUCCGACCUGA [Eternabot (Original) Solution 31] (Eterna round: R97, puzzle: Sensor, turn-off variant 1) | 35.7 nM | 36.5 nM | –
CAGUACUGAGGAUAUACAUGAGGAUCACCCAUGUGUUUUCUACUAGGAAACUAGGUAUGUAGAAGGCAGUACUG [Omei Ex3 Mod of Eli 4.27 v3] (Eterna round: R97, puzzle: Exclusion 3) | 194 nM | 22.9 nM | –
GUUUUCAGACGGAGAUCCUACAUGAGGAUCACCCAUGUCUCUCUUGCUAAUUGCUCGUCUUAUUCUCCUCUGUUCUC [Elimod 37 - Jieux - Sensor, turn-off variant 1] (Eterna round: R97, puzzle: Sensor, turn-off variant 1) | 80.8 nM | 100 nM | –
UAUAUAUAGUAAGGAUAUGUAAUUAUUUUAUGAACAGAAGGUACUGACAUGAGGAUCACCCAUGUUUUAGUGUGGGCAUGUAGA [JMF's solution 48] (Eterna round: R96, puzzle: Exclusion NG 1) | – | – | apparent KD of MS2 coat protein [2]: 61.3 nM
GGUACUAACACGAAAGUGUUAGUACUAUAAGCUUGUGUUACAUGAGGAUCACCCAUGUCCUCAUAAGCUCGUCUUGU [JL-sv3-2.19 mat747 mod] (puzzle: Sensor v3, turn-off variant 2) | – | – | apparent KD of MS2 coat protein [3]: 45.4 nM; apparent KD of MS2 coat protein [1]: 44.2 nM; apparent KD of MS2 coat protein [4]: 44.9 nM
UACAUGAGGAUCACCCAUGUUUUGUCGUGUAUGGUAUUUAUCUAGGAUAUCAAUUGAGUUAUUUAUGAGAAGGAGAAUAUUAAU [JMF's solution 59] (Eterna round: R96, puzzle: Exclusion NG 3) | – | – | apparent KD of MS2 coat protein [2]: 31.6 nM
AGCUGUGGCCGAGGAUAUCUGUUUCAUAAAACCGAAAUAUAAUCGGACAUGAGGAUCACCCAUGUAGAGAAGGCGGUCUCAGCA [Eli eng2 - 097] (Eterna round: R96, puzzle: Exclusion NG 2) | – | – | apparent KD of MS2 coat protein [2]: 12 nM
